{"source": "patent US6855549B1", "about": "“Methods and compositions for increasing the infectivity of gene transfer vectors” (The University of Iowa Research Foundation, priority 1998, dated 2005)", "molecules": {"B1": {"name": "KGF: recombinant human keratinocyte growth factor (protein, UniProt P21781 32-194, looked up)", "Fibroblast growth factor 7": "CNDMTPEQMATNVNCSSPERHTRSYDYMEGGDIRVRRLFCRTQWYLRIDKRGKVKGTQEMKNNYNIMEIRTVAVGIVAIKGVESEFYLAMNKEGKLYAKKECNEDCNFKELILENHYNTYASAKWTHNGGEMFVALNQKGIPVRGKKTKKEQKTAHFLPMAIT"}}, "key": {"[1]": {"system": "human bronchial epithelial cells", "assay_type": "cell-based", "experimental": "Primary human airway epithelial cells were collected by enzymatic digestion of bronchial samples from lung transplants as previously described (Kondo et al., 1991; Zabner et al., 1996). Isolated airway primary cells were seeded at a density of 5×10^5 cells/cm^2 onto collagen-coated Millicell-HA culture inserts (Millipore, Bedford, Mass.). Primary cultures were grown at the air-liquid interface for more than 2 wk, at which time differentiation into a mucociliary epithelium occurs. The culture medium, used to feed only the basolateral side of the cells, contained 49% Dulbecco's modified Eagle's medium (DMEM), 49% Ham's F12, and 2% Ultraser G (BioSepra, Cedex, France).\nRecombinant AAV virus was produced by a CaPO4 co-transfection protocol and was purified through three rounds of isopycnic cesium chloride ultracentrifuigation, as previously described (Duan et al., 1997). […] Typical yields were 1×10^9 particles/μl, determined on the basis of DNA slot-blot hybridization assays against plasmid standards. […] Viral preparations were evaluated for the contamination of wild type AAV (wtAAV) by immunocytochemical staining of AV.GFP3ori/Ad.CMVLacZ (Duan et al., 1998)-coinfected 293 cells with anti-Rep antibodies (American Research Products, Belmont, Mass.). […]"}, "[2]": {"system": "airway epithelial cells", "experiment": "BrdU staining of KGF-treated airway cultures", "assay_type": "cell-based, human", "conditions": "KGF 100 ng/ml, two consecutive days", "experimental": "Identification of proliferating airway epithelial cells were performed using bromodeoxyuridine (BrdU) labeling reagents from Zymed Laboratories (South San Francisco, Calif.). Cells were treated with recombinant human keratinocyte growth factor (rKGF; Chiron, San Diego, Calif.) at 100 ng/ml for two consecutive days. The cells were then pulse labeled for 12 hr with a 1:100 dilution of the BrdU labeling reagent prior to fixation in 10% neutral buffered formalin. Histochemical staining of BrdU incorporation into nuclei was performed according to the manufacturer's instructions. Cells were counterstained with hematoxylin and the cell culture filters were examined by en face microscopy of the apical surface."}, "[3]": {"system": "epithelia", "conditions": "in vivo; cited from earlier work"}}, "data": [{"molecule": "B1", "values": [{"measurement": "long-term (40 day) gene expression after KGF", "setting": "[1]; infection from the basal side", "result": "inhibited twofold"}, {"measurement": "efficiency of rAAV transduction after KGF", "setting": "[1]; virus apical or basolateral", "result": "did not increase the efficiency of rAAV transduction"}, {"measurement": "cell proliferation by BrdU incorporation", "setting": "[2]", "result": "significant increases in cell proliferation"}, {"measurement": "mutagenicity", "setting": "[3]", "result": "is not mutagenic"}]}]}
